Reference: patent US20230295310A1 (ABCELLERA BIOLOGICS, published 2023)
Numbering of substitutions follows the chain as printed.

B1: mAb 287 (antibody, V domains shown)
VH: EVQLVESGGGVVRPGGSLRLSCAASGFTFDDYGMSWVRQAPGKGLEWVSGISWNGGSTGYADSVKGRFTISRDNAKNSLYLQMNSLRAEDTALYHCARDGVPVVKRRYYYYYMDVWGKGTTVTVSS
VL: EIVLTQSPDFQSVTPKEKVTITCRASQSIGSSLHWYQQKPDQSPKLLIKYASQSFSGVPSRFSGSGSGTDFTLTINSLEAEDAATYYCHQSASLPQTFGQGTKVEIK
notes: VH/VL only
B2: mAb 286 (antibody, V domains shown)
VH: B1 VH with Q3K
VL: B1 VL with S65R, A92G
notes: VH/VL only
B3: mAb 290 (antibody, V domains shown)
VH: B1 VH
VL: B1 VL with V19I
notes: VH/VL only
B4: mAb 170 (antibody, V domains shown)
VH: EVQLVESGGGLVRPGRSLRLSCAASGFTFDDYTMHWVRQAPGKGLEWVSGISWNSGSIGYADSVKGRFTISRDNAKNSLYLQMNSLRAEDTALYYCSKDSSGYGYYLNYSLDVWGKGTTVTVSS
VL: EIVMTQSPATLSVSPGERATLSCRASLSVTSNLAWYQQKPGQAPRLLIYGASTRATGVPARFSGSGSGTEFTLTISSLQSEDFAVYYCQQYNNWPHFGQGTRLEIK
notes: VH/VL only
B5: mAb 174 (antibody, V domains shown)
VH: EVQLVESGGGLVQPGGSLRLSCAASGFTFSSNWMSWVRQAPGKGLEWVANIKQDGSEKYSVDSVKGRFTISRDNAKNSLYLQMNSLRAEDTAVYYCARDRSRNYYWYFDLWGRGTLVTVSS
VL: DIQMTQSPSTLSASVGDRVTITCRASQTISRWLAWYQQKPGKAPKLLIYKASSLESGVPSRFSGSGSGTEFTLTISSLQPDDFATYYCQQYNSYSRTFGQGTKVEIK
notes: VH/VL only
B6: mAb 175 (antibody, V domains shown)
VH: B5 VH with Q3E, S60Y, Q82K, R100C, R102S, Y104W
VL: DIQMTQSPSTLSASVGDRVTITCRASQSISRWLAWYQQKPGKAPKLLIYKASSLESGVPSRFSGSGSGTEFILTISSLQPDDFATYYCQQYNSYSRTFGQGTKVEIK
notes: VH/VL only
B7: mAb 285 (antibody, V domains shown)
VH: EVQLLESGGGLGQPGGSLRLSCAASGFTFSNYAMSWVRQAPGKGLEWVSVISGSGGDKNYADSVKGRFTISRDNSKNTLYLQMNSLRAEDTAVYYCAKKYSYYYYYMDVWGKGTTVTVSS
VL: SYELTQPLSVSVALGQTARITCGGNNIGSKDVHWYQQKPGQAPVLVIYRDSNRPSGIPERFSGSNSGNTATLTISSAQAGDEADYYCQVWDSRTAVFGGGTQLTAL
notes: VH/VL only
B8: mAb 188 (antibody, V domains shown)
VH: QVQLVESGGGVVQPGRSLRLSCAASGFTFSGYGMHWVRQAPGKGLEWVAIIYYNGKKEYYADSVKGRFTISRDNSKNTLYLQMNSLRAEDTAVYYCTRGEGYNWFDPWGQGTLVTVSS
VL: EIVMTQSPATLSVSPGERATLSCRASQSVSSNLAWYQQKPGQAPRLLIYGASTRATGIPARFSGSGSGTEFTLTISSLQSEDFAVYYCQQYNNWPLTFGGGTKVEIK
notes: VH/VL only
B9: mAb 189 (antibody, V domains shown)
VH: B8 VH with N54D, K57N, E58K, N77S, R87G, E89D, E100K
VL: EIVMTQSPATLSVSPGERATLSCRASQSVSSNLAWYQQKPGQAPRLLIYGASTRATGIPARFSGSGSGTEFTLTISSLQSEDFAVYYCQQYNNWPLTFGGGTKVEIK
notes: VH/VL only
B10: mAb 198 (antibody, V domains shown)
VH: B8 VH with R16G, Y52W, K56R, E58T, D62E, Y80S, A88I, R98T, E100Q
VL: EIVMTQSPATLSVSPGERATLSCRASQSVSSNLAWYQQKPGQAPRLLIYGASTRATGIPARFSGSGSGTEFTLTISSLQSEDFAVYYCQQFNAWPLTFGGGTKMEIK
notes: VH/VL only
B11: mAb 199 (antibody, V domains shown)
VH: B8 VH with S71F, Q82H
VL: B10 VL with S31R, F91Y, A93N, M104V
notes: VH/VL only
B12: mAb 192 (antibody, V domains shown)
VH: B8 VH with T112I
VL: B10 VL with Q89K, F91Y, N92K, A93N, M104V
notes: VH/VL only
B13: mAb 191 (antibody, V domains shown)
VH: B8 VH
VL: B10 VL with E70D, D82H, F91Y, N92T, A93N, M104V
notes: VH/VL only
B14: mAb 197 (antibody, V domains shown)
VH: B8 VH with R16G, Y52W, K56R, E58T, D62E, Y80S, A88V, R98T, E100Q
VL: B10 VL
notes: VH/VL only
B15: mAb 141 (antibody, V domains shown)
VH: QVQLVQSGAEVKKPGASVKVSCKASGYTFTSYYIHWVRQAPGQGLDWMGIINPSGGITGYAQKLQGRVTMTRDTSTTTVYMELSSLRSDDTAVYYCARGVRGNYYYYYMDVWGKGTTVTVSS
VL: B1 VL with S32K, T72N, Y86F, A92S, S93G, Q96Y, V104L
B16: mAb 145 (antibody, V domains shown)
VH: B15 VH with S31N, L64F
VL: B1 VL with S32K, Y50F, T72N, A80P, Y86F, A92S, S93G, Q96Y, V104L
B17: mAb 172 (antibody, V domains shown)
VH: EVQLVESGGGLVQPGRSLRLSCTTSGFTFDDYTMHWVRQVPGKGLEWVSDISWNSGSVGYADSVKGRFTISRDNAKNSLYLQMNSLRAEDTALYYCVKDSSGYGHYFHYYMDVWGKGTTVTVSS
VL: DIQMTQSPSSLSASVGDRVTITCRASQSISNYLNWYQVKPGKAPKVLIYAASSLQSGVPSRFSGSGSGTDFTLTISSLQPEDFVSYYCHQSYNAPITFGQGTRLESK
notes: VH/VL only
B18: mAb 173 (antibody, V domains shown)
VH: B17 VH with T23A, T24A
VL: B17 VL with A94T, S106I
notes: VH/VL only
B19: mAb 273 (antibody, V domains shown)
VH: EVQLVESGGGLVQPGESLKLSCTASGFTFSVSAIHWVRQASGKGLEWVGRIRSKANSYATAYVASVKGRFTLSRDDSKNTAYLQMNSLKTEDTAVYYCSSYYFVSGTYYNHWGQGTLVTVSS
VL: DIQMTQSPSSLSASVGDRVTITCRASQGIRYDLGWYQQKPGRAPKRLIHSVSSLQSGVPSRFSGSGSGTEFTLTISSLQPEDFATYYCLQHNVNPCTFGQGTKLEIK
notes: VH/VL only

Target: T1, cynomolgus monkey CD3 expressed on cyno primary T cells (cynomolgus monkey, UniProt Q95LI5 22-198; Q95LI8 22-171; Q95LI7 23-181)
T1 construct: whole, on cells; CD3 complex on purified cynomolgus monkey CD3 pan T cells; also called cyno CD3
T1 sequence (Q95LI5 22-198, chain 1 of 3): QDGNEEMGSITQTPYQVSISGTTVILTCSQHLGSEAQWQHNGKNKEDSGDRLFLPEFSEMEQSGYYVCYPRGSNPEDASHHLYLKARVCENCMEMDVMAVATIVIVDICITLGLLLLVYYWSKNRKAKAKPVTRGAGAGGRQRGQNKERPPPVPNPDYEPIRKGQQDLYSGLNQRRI
T1 sequence (Q95LI8 22-171, chain 2 of 3): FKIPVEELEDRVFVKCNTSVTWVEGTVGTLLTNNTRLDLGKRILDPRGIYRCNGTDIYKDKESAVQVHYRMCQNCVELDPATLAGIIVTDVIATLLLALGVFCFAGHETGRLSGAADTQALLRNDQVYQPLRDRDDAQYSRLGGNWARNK
T1 sequence (Q95LI7 23-181, chain 3 of 3): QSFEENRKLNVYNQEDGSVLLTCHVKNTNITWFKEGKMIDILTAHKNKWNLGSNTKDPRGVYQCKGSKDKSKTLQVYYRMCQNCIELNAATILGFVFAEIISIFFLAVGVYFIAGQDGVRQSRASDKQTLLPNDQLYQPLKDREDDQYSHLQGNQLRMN
Assay: flow cytometry, cyno primary T cells
Experimental: (§1) Purified antibodies were confirmed to bind CD3 expressed on cells using the CytoFLEX S or LX flow cytometers (Beckman Coulter). Antibodies were diluted to 25 nM in FACS buffer (PBS+2% FBS) and were incubated with CD3-expressing cells for 30 minutes at 4° C. […] The median fluorescence intensity of the binding signal for each antibody was normalized to the isotype control to obtain a fold over isotype value. An antibody with a fold over isotype (FOI) of ≥10 was considered to be positive for binding.

B1: no binding (tested: FOI <10 (FOI >=10 = positive); 25 nM).
B2: no binding (tested: FOI <10 (FOI >=10 = positive); 25 nM).
B3: no binding (tested: FOI <10 (FOI >=10 = positive); 25 nM).
B4: no binding (tested: FOI <10 (FOI >=10 = positive); 25 nM).
B5: no binding (tested: FOI <10 (FOI >=10 = positive); 25 nM).
B6: no binding (tested: FOI <10 (FOI >=10 = positive); 25 nM).
B7: no binding (tested: FOI <10 (FOI >=10 = positive); 25 nM).
B8: no binding (tested: FOI <10 (FOI >=10 = positive); 25 nM).
B9: no binding (tested: FOI <10 (FOI >=10 = positive); 25 nM).
B10: no binding (tested: FOI <10 (FOI >=10 = positive); 25 nM).
B11: no binding (tested: FOI <10 (FOI >=10 = positive); 25 nM).
B12: no binding (tested: FOI <10 (FOI >=10 = positive); 25 nM).
B13: no binding (tested: FOI <10 (FOI >=10 = positive); 25 nM).
B14: no binding (tested: FOI <10 (FOI >=10 = positive); 25 nM).

Target: T2, human CD3 expressed on cells (human, UniProt P07766 23-207; P04234 22-171; P09693 23-182)
T2 construct: whole, on cells; CD3 complex on Jurkat cells and on human primary T cells
T2 sequence (P07766 23-207, chain 1 of 3): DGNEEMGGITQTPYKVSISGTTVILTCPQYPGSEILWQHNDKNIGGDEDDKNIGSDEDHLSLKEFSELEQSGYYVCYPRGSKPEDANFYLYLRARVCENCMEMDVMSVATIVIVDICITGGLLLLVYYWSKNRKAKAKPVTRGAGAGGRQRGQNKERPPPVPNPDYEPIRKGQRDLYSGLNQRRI
T2 sequence (P04234 22-171, chain 2 of 3): as the sequence (Q95LI8 22-171, chain 2 of 3) above, with V5I, K15N, V20I, T32S, N33D, N34I, A64T, N74S, L83V, R141H counted along it
T2 sequence (P09693 23-182, chain 3 of 3): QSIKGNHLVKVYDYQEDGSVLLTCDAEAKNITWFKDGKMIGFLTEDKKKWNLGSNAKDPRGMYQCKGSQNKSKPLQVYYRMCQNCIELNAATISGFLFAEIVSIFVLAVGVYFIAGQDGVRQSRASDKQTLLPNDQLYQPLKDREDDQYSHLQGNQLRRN
Assay: flow cytometry, 25 nM
Procedure, shortened: (§2)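 Antibodies at 25 nM in PBS + 2% FBS were incubated with CD3-expressing cells for 30 min at 4 °C and read by flow cytometry. Median fluorescence intensity was normalized to isotype control as fold over isotype; ≥10 counted as binding.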

In order of rising “Human primary T Cell Binding (FOI)” value:
1. B16  217 FOI
2. B15  310 FOI

In order of rising “Jurkat Cell Binding (FOI)” value:
1. B15  183 FOI
2. B16  191 FOI

Target: T3, cynomolgus monkey CD3 expressed on primary T cells (cynomolgus monkey, UniProt Q95LI5 22-198; Q95LI8 22-171; Q95LI7 23-181)
T3 construct: whole, on cells; CD3 complex on purified cynomolgus monkey T cells; also called cyno CD3
T3 sequence (Q95LI5 22-198, chain 1 of 3): as the sequence (Q95LI5 22-198, chain 1 of 3) above
T3 sequence (Q95LI8 22-171, chain 2 of 3): as the sequence (Q95LI8 22-171, chain 2 of 3) above
T3 sequence (Q95LI7 23-181, chain 3 of 3): as the sequence (Q95LI7 23-181, chain 3 of 3) above
Assay: flow cytometry, 25 nM, cyno primary T cells
Procedure, shortened: as §2

B15: no binding (tested: FOI >=10 = positive).
B16: no binding (tested: FOI >=10 = positive).

Target: T4, human CD3 expressed on cells (Jurkat cells; human primary T cells) (human, UniProt P07766 23-207; P04234 22-171; P09693 23-182)
T4 construct: whole, on cells
T4 sequence (P07766 23-207, chain 1 of 3): as the sequence (P07766 23-207, chain 1 of 3) above
T4 sequence (P04234 22-171, chain 2 of 3): as the sequence (Q95LI8 22-171, chain 2 of 3) above, with V5I, K15N, V20I, T32S, N33D, N34I, A64T, N74S, L83V, R141H counted along it
T4 sequence (P09693 23-182, chain 3 of 3): as the sequence (P09693 23-182, chain 3 of 3) above
Assay: flow cytometry, 25 nM, human primary T cells
Experimental: as §1

In order of falling “Binding (FOI)” value:
1. B14  260 FOI
2. B5  231 FOI
3. B10  231 FOI
4. B7  229 FOI
5. B11  225 FOI
6. B12  223 FOI
7. B8  216 FOI
8. B13  212 FOI
9. B2  185 FOI
10. B9  184 FOI
11. B18  169 FOI
12. B17  167 FOI
13. B4  120 FOI
14. B6  118 FOI
15. B1  107 FOI
16. B3  99.8 FOI
17. B19  24.2 FOI

Target: T4, human CD3 expressed on cells (Jurkat …)
Assay: flow cytometry, 25 nM, Jurkat cells
Experimental: as §1

In order of falling “Binding (FOI)” value:
1. B2  232 FOI
2. B7  232 FOI
3. B14  183 FOI
4. B10  182 FOI
5. B12  176 FOI
6. B11  172 FOI
7. B8  171 FOI
8. B13  170 FOI
9. B9  165 FOI
10. B1  156 FOI
11. B3  135 FOI
12. B5  130 FOI
13. B4  117 FOI
14. B17  111 FOI
15. B18  109 FOI
16. B6  96.6 FOI
17. B19  53.1 FOI
